In data set [1] the target is T1, CBP-tagged Tfb2 (purified yeast Tfb2 protein) (S. cerevisiae, UniProt Q02939 1-513).
T1 sequence (looked up): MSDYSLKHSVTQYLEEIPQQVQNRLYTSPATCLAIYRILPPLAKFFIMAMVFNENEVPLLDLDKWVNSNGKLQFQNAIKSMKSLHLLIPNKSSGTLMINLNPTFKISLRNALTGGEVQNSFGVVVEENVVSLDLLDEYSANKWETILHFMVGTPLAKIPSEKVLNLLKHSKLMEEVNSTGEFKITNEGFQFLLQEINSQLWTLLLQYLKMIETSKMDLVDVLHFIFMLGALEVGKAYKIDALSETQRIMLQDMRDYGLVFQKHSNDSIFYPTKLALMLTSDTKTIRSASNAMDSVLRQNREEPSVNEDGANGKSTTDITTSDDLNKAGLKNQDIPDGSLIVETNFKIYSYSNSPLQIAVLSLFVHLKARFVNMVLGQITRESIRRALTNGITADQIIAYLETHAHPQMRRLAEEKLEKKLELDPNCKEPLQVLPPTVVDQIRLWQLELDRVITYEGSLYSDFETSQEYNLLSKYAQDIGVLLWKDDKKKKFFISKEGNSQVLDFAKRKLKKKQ
Description: pull-down.

A further data set concerns the target T2, Tfb5 (Saccharomyces cerevisiae, UniProt Q3E7C1 1-72).
T2 sequence: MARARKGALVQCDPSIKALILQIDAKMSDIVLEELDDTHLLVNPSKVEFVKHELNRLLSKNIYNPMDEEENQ
As to the kind of experiment: EMSA.

Data set [2] deals with T1, CBP-tagged Tfb2 (purified yeast Tfb2 …). As to the kind of experiment: co-IP.

The text below walks through data of article PMC1807977 (Nucleic Acids Research, 2007).

B1: His6-Tfb5ΔN7 (domain or fragment, S. cerevisiae, UniProt Q3E7C1 8-72, looked up)
chain: ALVQCDPSIKALILQIDAKMSDIVLEELDDTHLLVNPSKVEFVKHELNRLLSKNIYNPMDEEENQ
On to B1, for which, in data set [1], the binding result is “binds”.

B2: 79mer ss (ssDNA)
DNA: GGAATTCCGGAATTACAGGCTCTAACACCGAATTACAGGCTCTAACACCGTCTCATCTTCGCTCGTCCACTTTTTTTCG
For B2, in the data set with Tfb5, the binding result is reported as “no binding”.

B3: His6-Tfb5ΔC14 (domain or fragment, S. cerevisiae, UniProt Q3E7C1 1-58, looked up)
chain: MARARKGALVQCDPSIKALILQIDAKMSDIVLEELDDTHLLVNPSKVEFVKHELNRLL
For the molecule B3, in data set [1], the binding result is recorded as “binds”.

B4: His6-Tfb5 (purified yeast Tfb5 protein) (natural protein, S. cerevisiae, UniProt Q3E7C1 1-72, looked up)
chain: MARARKGALVQCDPSIKALILQIDAKMSDIVLEELDDTHLLVNPSKVEFVKHELNRLLSKNIYNPMDEEENQ
For the molecule B4, in data set [2], the binding result is “binds”.
